Data: US10729768B2, “Combination of anti-CD20 antibody and PI3 kinase selective inhibitor” (TG Therapeutics, Inc., priority 2012, dated 2020)

Columns and labels:
Type in all cases: cell-based
[1] = tested on: Raji Cells; assay: cell cycle assay, flow cytometry; settings: for G0/G1, percentage of the cell population / G2/M, percentage of the cell population / S, percentage of the cell population / Sub G0, percentage of the cell population: 72 h
Procedure: (§1) A cell cycle assay reagent (Millipore) was used to determine the effect of S-isomer of a compound of formula A, UBX, and combinations thereof on the cell cycle in cancerous cells. […] The cells were transferred to microfuge tubes to receive 50 μl of cell cycle reagent and incubated for 30 minutes at RT away from light. Cells were then diluted with 300-400 μl PBS, and a minimum of 10,000 events were acquired on a Guava® easyCyte™ flow cytometer. The data was analyzed with Express Pro software and the percentage of the cell population in different cell cycle stages with respect to control was presented in histograms.

[2] = tested on: Daudi cells; assay: cell cycle assay, flow cytometry; settings: for G0/G1, percentage of the cell population / G2/M, percentage of the cell population / S, percentage of the cell population / Sub G0, percentage of the cell population: 72 h
Procedure: as §1

[3] = tested on: U266B1 cells; assay: cell cycle assay, flow cytometry; settings: for G0/G1, percentage of the cell population / G2/M, percentage of the cell population / S, percentage of the cell population / Sub G0, percentage of the cell population: 72 h
Procedure: as §1

[4] = tested on: DB Cells; assay: cell cycle assay, flow cytometry; settings: for G0/G1, percentage of the cell population / G2/M, percentage of the cell population / S, percentage of the cell population / Sub G0, percentage of the cell population: DB cells, 72 h
Procedure: as §1

[5] = tested on: CD20-positive cells; assay: B cell depletion from human whole blood (HWB), flow cytometry, CD20; settings: human whole blood, 24 hrs
Procedure: (§2) A flow cytometry assay was used to compare the ability of S-isomer of compound of formula A, Ublituximab (Ubx), and combinations thereof to deplete B cells from human whole blood (HWB). In this assay, 50 μl of HWB sample was treated with either S-isomer of a compound of formula A (1000 nM), UBX (100 μg/ml to 0.1 μg/ml), or UBX in combination with S-isomer of a compound of formula A at 1000 nM and incubated for 24 hrs at 37° C. and 5% CO2. 20 μl of treated sample was taken in a 1.5 ml centrifuge tube and labeled with CD45 FITC and CD19 PE or CD20 FITC antibody and incubated in the dark for 1 hour at RT. 1 ml of red blood cell (RBC) lysing solution was added, and tubes were centrifuged at 3000 rpm for 10 minutes. […] The tubes were vortexed, and 5000 events were acquired on a Guava® easyCyte™ flow cytometer and analyzed with Incyte Software.
(§3) Gated population of CD45-positive cells were further analyzed for CD19. The number of cells that were positive for CD45 and CD19 was calculated, and the data was expressed as the percentage of CD19 positive cells in the population. CD20-positive populations were gated with fluorescence positive minus unlabeled cells, and the data was expressed as the percentage of CD20-positive cells in the population. The loss of CD19/CD20 population from control was calculated and expressed as % depletion with respect to control.

[6] = tested on: CD19-positive cells; assay: B cell depletion from human whole blood (HWB), flow cytometry, CD19; settings: human whole blood, doses from 1 to 100,000 ng/ml, 24 hrs
Procedure: as §2, §3

B1: UBX: monoclonal antibody that targets a specific and unique epitope on CD20, bioengineered for enhanced clinical activity and potency (antibody, V domains shown)
VH: QAYLQQSGAELVRPGASVKMSCKASGYTFTSYNMHWVKQTPRQGLEWIGGIYPGNGDTSYNQKFKGKATLTVGKSSSTAYMQLSSLTSEDSAVYFCARYDYNYAMDYWGQGTSVTVSS
VL: QIVLSQSPAILSASPGEKVTMTCRASSSVSYMHWYQQKPGSSPKPWIYATSNLASGVPARFSGSGSGTSYSFTISRVEAEDAATYYCQQWTFNPPTFGGGTRLEIK
modifications: antibody fragment
[1]; UBX 0.001 ng/ml
  G0/G1, percentage of the cell population: 50.52
  G2/M, percentage of the cell population: 33.66
  S, percentage of the cell population: 10.61
  Sub G0, percentage of the cell population: 4.35
[1]; UBX 0.01 ng/ml
  G0/G1, percentage of the cell population: 54.54
  G2/M, percentage of the cell population: 25.08
  S, percentage of the cell population: 12.65
  Sub G0, percentage of the cell population: 5.51
[1]; UBX 0.1 ng/ml
  G0/G1, percentage of the cell population: 41.11
  G2/M, percentage of the cell population: 22.00
  S, percentage of the cell population: 8.93
  Sub G0, percentage of the cell population: 23.73
[1]; UBX 1 ng/ml
  G0/G1, percentage of the cell population: 39.72
  G2/M, percentage of the cell population: 15.35
  S, percentage of the cell population: 14.82
  Sub G0, percentage of the cell population: 27.32
[1]; UBX 10 ng/ml
  G0/G1, percentage of the cell population: 45.01
  G2/M, percentage of the cell population: 12.90
  S, percentage of the cell population: 8.15
  Sub G0, percentage of the cell population: 31.86
[1]; UBX 100 ng/ml
  G0/G1, percentage of the cell population: 22.19
  G2/M, percentage of the cell population: 33.74
  S, percentage of the cell population: 11.05
  Sub G0, percentage of the cell population: 34.78
[1]; 72 hours
  cell cycle effect: increased the number of Sub GO cells
[2]; UBX 0.001 ng/ml
  G0/G1, percentage of the cell population: 38.12
  G2/M, percentage of the cell population: 41.95
  S, percentage of the cell population: 17.90
  Sub G0, percentage of the cell population: 2.03
[2]; UBX 0.01 ng/ml
  G0/G1, percentage of the cell population: 36.24
  G2/M, percentage of the cell population: 37.83
  S, percentage of the cell population: 19.15
  Sub G0, percentage of the cell population: 6.77
[2]; UBX 0.1 ng/ml
  G0/G1, percentage of the cell population: 37.40
  G2/M, percentage of the cell population: 32.42
  S, percentage of the cell population: 17.06
  Sub G0, percentage of the cell population: 13.42
[2]; UBX 1 ng/ml
  G0/G1, percentage of the cell population: 40.52
  G2/M, percentage of the cell population: 26.99
  S, percentage of the cell population: 17.54
  Sub G0, percentage of the cell population: 14.95
[2]; UBX 10 ng/ml
  G0/G1, percentage of the cell population: 40.92
  G2/M, percentage of the cell population: 28.08
  S, percentage of the cell population: 13.23
  Sub G0, percentage of the cell population: 17.77
[2]; UBX 100 ng/ml
  G0/G1, percentage of the cell population: 43.66
  G2/M, percentage of the cell population: 28.55
  S, percentage of the cell population: 9.28
  Sub G0, percentage of the cell population: 19.55
[2]; 72 hours
  cell cycle effect: increased the number of Sub GO cells
[3]; UBX 0.001 ng/ml
  G0/G1, percentage of the cell population: 60.79
  G2/M, percentage of the cell population: 30.49
  S, percentage of the cell population: 6.00
  Sub G0, percentage of the cell population: 1.34
[3]; UBX 0.01 ng/ml
  G0/G1, percentage of the cell population: 59.32
  G2/M, percentage of the cell population: 35.48
  S, percentage of the cell population: 6.57
  Sub G0, percentage of the cell population: 0.74
[3]; UBX 0.1 ng/ml
  G0/G1, percentage of the cell population: 57.53
  G2/M, percentage of the cell population: 35.64
  S, percentage of the cell population: 7.63
  Sub G0, percentage of the cell population: 1.35
[3]; UBX 1 ng/ml
  G0/G1, percentage of the cell population: 58.81
  G2/M, percentage of the cell population: 36.07
  S, percentage of the cell population: 7.07
  Sub G0, percentage of the cell population: 0.51
[3]; UBX 10 ng/ml
  G0/G1, percentage of the cell population: 56.85
  G2/M, percentage of the cell population: 37.86
  S, percentage of the cell population: 6.34
  Sub G0, percentage of the cell population: 0.78
[3]; UBX 100 ng/ml
  G0/G1, percentage of the cell population: 52.95
  G2/M, percentage of the cell population: 39.65
  S, percentage of the cell population: 7.91
  Sub G0, percentage of the cell population: 1.95
[3]; 72 hours
  cell cycle effect: modest G2/M arrest
[4]; UBX 0.001 ng/ml
  G0/G1, percentage of the cell population: 54.38
  G2/M, percentage of the cell population: 34.02
  S, percentage of the cell population: 9.45
  Sub G0, percentage of the cell population: 0.59
[4]; UBX 0.01 ng/ml
  G0/G1, percentage of the cell population: 54.99
  G2/M, percentage of the cell population: 34.79
  S, percentage of the cell population: 7.73
  Sub G0, percentage of the cell population: 0.73
[4]; UBX 0.1 ng/ml
  G0/G1, percentage of the cell population: 56.34
  G2/M, percentage of the cell population: 38.40
  S, percentage of the cell population: 12.34
  Sub G0, percentage of the cell population: 1.10
[4]; UBX 1 ng/ml
  G0/G1, percentage of the cell population: 51.36
  G2/M, percentage of the cell population: 40.07
  S, percentage of the cell population: 6.46
  Sub G0, percentage of the cell population: 0.52
[4]; UBX 10 ng/ml
  G0/G1, percentage of the cell population: 49.52
  G2/M, percentage of the cell population: 40.56
  S, percentage of the cell population: 10.07
  Sub G0, percentage of the cell population: 0.56
[4]; UBX 100 ng/ml
  G0/G1, percentage of the cell population: 45.98
  G2/M, percentage of the cell population: 46.55
  S, percentage of the cell population: 7.66
  Sub G0, percentage of the cell population: 0.67
[4]; Diffuse Large B-cell Lymphoma (DB) cells, 72 hours
  cell cycle effect: modest G2/M arrest
[5]
  reduction in CD20+ B-cells: dose-dependent reduction
[6]
  depletion of B-cells: 20-30%
